# Results reported in patent US20210188989A1 (SYSTIMMUNE, published 2021).
# Changes are numbered by the printed parent chain.
# T1: recombinant cynomolgus 4-1BB extracellular domain protein (cynomolgus, UniProt A9YYE7 24-186)
# T1 construct: Analyte in the Octet assay
# T1 sequence: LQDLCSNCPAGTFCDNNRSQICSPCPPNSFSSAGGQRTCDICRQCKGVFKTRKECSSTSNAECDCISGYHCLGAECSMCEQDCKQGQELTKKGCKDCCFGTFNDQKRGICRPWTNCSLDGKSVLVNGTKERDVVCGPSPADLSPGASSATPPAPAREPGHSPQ
# B1: 472E4 (antibody, human IgG1, kappa, V domains shown)
# VH: QSLEESGGRLVTPGGSLTLTCTVSGFSLNNNAISWVRQAPGKGLEWVAIIQNTGTTDYARWAKGRFTISKTSTTVDLKINSPTTEDTATYFCGRGYGFESELVIWGPGTLVTVSS
# VL: AAVLTQTPSSTSAAVGGTVTISCQSSQSVYNNNALAWYQKKPGQPPKLLIYLASTLASGVPSRFSGSGSGTQFTLTISDLECDDAATYYCLGVYNDDVDNGFGGGTEVVFKR
# notes: one of the 34 chimeric antibodies; rabbit variable regions on human IgG1 and human kappa; also called 472E4 chimeric rabbit/human IgG
# B2: 416F8 (antibody, human IgG1, kappa, V domains shown)
# VH: QSLEESGGRLVTPGTPLTLTCTASGFSLSNYYMNWVRQAPGKGLEYIGIISSSGSAYYASWAKGRFTISRTSTTVDLRITSPTTEDTATYFCARGDYGMDLWGQGTLVTVSS
# VL: AQVLTQTASSVSAPVGGTVTISCQSSQTVYNNNLLSWYQQKPGQRPKLLIYYASTLAFGVPSRFKGSGSGTEFTLTISDLECDDAATYFCQGGYSGWIYVFGGGTEVEVKR
# notes: one of the 34 chimeric antibodies; rabbit variable regions on human IgG1 and human kappa; also called 416F8 chimeric rabbit/human IgG
# B3: 420H5 (antibody, human IgG1, kappa, V domains shown)
# VH: QSLEESGGDLVKPGASLTLTCTASGFSFSSNYWICWVRQAPGKGLEWIACIYVGSSGDTYYASWAKGRFTISKTSSTTVTLQMTSLTAADTATYFCARDSSSYYMFNLWGQGTLVTVSS
# VL: ALVMTQTPASVSAAVGGTVTINCQASEDIDTYLAWYQQKPGQPPKLLIFYASDLASGVPSRFKGSGSGTEFTLTISGVQCDDAATYYCQGGYYTSSADTRGAFGGGTEVVVKR
# notes: one of the 34 chimeric antibodies; rabbit variable regions on human IgG1 and human kappa; also called 420H5 chimeric rabbit/human IgG
# B4: 470C6 (antibody, human IgG1, kappa, V domains shown)
# VH: B3 VH with S6A, S29T, N31S, W33Y, I34M, V53T, D58S, S63N
# VL: B3 VL with T31N, K63S, E70Q, A97T
# notes: one of the 34 chimeric antibodies; rabbit variable regions on human IgG1 and human kappa; also called 470C6 chimeric rabbit/human IgG
# B5: 466F6 (antibody, human IgG1, kappa, V domains shown)
# VH: RSLEESGGRLVTPGTPLTLTCTASGFTISSYHMQWVRQAPGKGLEYIGTISSGGNVYYASWARGRFTISRPSSTTVDLKMTSLTTEDTATYFCARDSGYSDPMWGPGTLVTVSS
# VL: DVVMTQTPASVSEPVGGTVTIKCQASQNIRTYLSWYQQKPGQRPKLLIYAAANLASGVPSRFSGSRSGTEFTLTISDLECADAATYYCQCTYLGTDYVGGAFGGGTEVEFKR
# notes: one of the 34 chimeric antibodies; rabbit variable regions on human IgG1 and human kappa; also called 466F6 chimeric rabbit/human IgG
# B6: 411H11 (antibody, human IgG1, kappa, V domains shown)
# VH: QSVEESGGRLVTPGTPLTLTCTVSGFTISSHHMIWVRQAPGEGLQYIGFINDGDYTYYTNWAKGRFTISRTSTTVDLKMTSLTAADTATYFCARGVDGTSYPGLWGPGTLVTVSS
# VL: DVVMTQTPASVSEPVRATVTIKCQASQSIGADLAWYQQKPGQPPKLLIYRASTLASGVPSRFSGSGSGTEFTLTISDLECADAATYYCQCIYYGTDDVIYHTFGGGTEVVFKR
# notes: one of the 34 chimeric antibodies; rabbit variable regions on human IgG1 and human kappa; also called 411H11 chimeric rabbit/human IgG
# B7: 418H5 (antibody, human IgG1, kappa, V domains shown)
# VH: QSLEESGGRLVTPGTPLTLTCTVSGIDLSAYHMSWVRQAPGKGLEYIGMIGSSGTIHYANWAKGRFTISKTSTTVDLKITSPTTEDTATYFCARDSYNSDYAFNLWGPGTLVTVSS
# VL: AQVLTQTPASVSATVGSTVTISCQSSPSVYKNNQLAWYQQKPGQPPKLLIYLASTLASGVPSRFKGSGSGTEFTLTISDLECADAATYYCAGGYSSSSDTAFGGGTEVEVKR
# notes: one of the 34 chimeric antibodies; rabbit variable regions on human IgG1 and human kappa; also called 418H5 chimeric rabbit/human IgG
# B8: 413F3 (antibody, human IgG1, kappa, V domains shown)
# VH: QSLEESGGDLVKPEGSLTLTCTGSGIDFSSNYMCWVRQAPGKGLEWIACIYGDSSDNSYSASWAKGRFTISKTSSTTVTLQMTSLTAADTATYFCARSGYSYLGYFNLWGPGTLVTVSS
# VL: DVVMTQTPASVEAAVGGTVTIKCQASQSIYSNLAWYQQKPGQPPKLLIYSTSTLASGVPSRFSGSGSGTEFTLTISDLECADAATYYCQNYYGSSTDSYGNPFGGGTEVVFKR
# notes: one of the 34 chimeric antibodies; rabbit variable regions on human IgG1 and human kappa; also called 413F3 chimeric rabbit/human IgG
# Molecular target: T2, recombinant human 4-1BB extracellular domain protein (human, UniProt Q07011 24-186)
# T2 construct: extracellular domain; Analyte in the Octet assay; also called CD137; TNFRSF9
# Assay: Octet BLI; chimeric IgG from transfection supernatant on anti-human Fc biosensor; recombinant human 41BB; column kdis(1/s) Human
# Text: (§1) The heavy and light chain expression plasmids generated from each well were transiently co-transfected to produce rabbit/human chimeric antibodies. Recombinant antibody supernatants were confirmed to contain antibodies specific for human and cynomolgus 4-1BB using bio-layer interferometry analysis on a ForteBio Octet Red 96 instrument. Anti-human Fc biosensors (Pall ForteBio) were used to capture antibodies in the supernatants. Association to human or cynomolgus 4-1BB was observed by real-time interferometry by placing the biosensors in wells containing recombinant human or cynomolgus 4-1BB extracellular domain protein. Dissociation was measured after transfer of the biosensors into wells containing 10× kinetics buffer (Pall ForteBio). The software provided by the manufacturer was used to analyze the interferometry data. A summary of the primary BCC screening data and the corresponding screening data for 34 recombinant chimeric rabbit/human IgG antibodies is shown in FIG. 2.
row,Binder,koff
1,B1,0.0011 s⁻¹
2,B2,0.0043 s⁻¹
3,B3,0.0013 s⁻¹
4,B4,0.001 s⁻¹
5,B5,0.0021 s⁻¹
6,B6,0.001 s⁻¹
7,B7,0.0014 s⁻¹
8,B8,0.00054 s⁻¹

# Molecular target: T1, recombinant cynomolgus 4-1BB …
# Assay: Octet BLI; chimeric IgG from transfection supernatant on anti-human Fc biosensor; recombinant cynomolgus 41BB; column kdis(1/s) Cynomolgus
# Text: as §1
row,Binder,koff
1,B1,0.0018 s⁻¹
2,B2,0.003 s⁻¹
3,B3,0.0023 s⁻¹
4,B4,0.0014 s⁻¹
5,B5,0.0026 s⁻¹
6,B6,0.0015 s⁻¹
7,B7,0.0016 s⁻¹
8,B8,0.00079 s⁻¹
